According to patent publication US4797472A, “New peptide derivatives” (KabiVitrum AB, priority 1986, dated 1989):
Square brackets hold non-standard residues; d marks the D form. Peptide text beside a SMILES is read from it. * marks the point of attachment. pNA = O=[N+]([O-])c1ccc(N*)cc1; Cbz = O=C(OCc1ccccc1)*

Legend:
FXa human = molecular target: T1, FXa human (Homo sapiens, UniProt P00742); assay: Determination of kinetic constants for FXa human (plasma activated with RVV+CaCl2); assay type: biochemical; conditions: substrate 0.1-0.7 mmol/l, trisbuffer pH 7.0, I=0.25, polybrene, 37° C.
T1 construct: from tissue; host or cells: human plasma
Description: The kinetic data for the substrates are determined by measuring the initial velocity of hydrolysis (Vi) at different substrate concentrations (Si) and at constant enzyme concentrations (Eo). The binding constant (Km) and the maximum velocity (Vmax) are obtained in known manner from Lineweaver-Burk-plot, then the Kcat is calculated (Hemker H. C. loc. cit.)
The substrates in concentrations between 0.1-0.7 mmol/l (Si) are mixed with FXa human plasma and treated according to the method as described by Aurell; L., et al. (Perspectives in Hemostatis, Ed. Fareed J. et al, New York, Pergamon Press 1981, p. 382-388).
10 μl test plasma, control or standard and 200 μl trisbuffer solution (0.05 mol/l tris, pH 7.0, I=0.25 (NaCl)), polybrene (0.1 g/l) are mixed and incubated at 37° C. for 2-4 minutes. 200 μl substrate (37° C.) in concentrations between 0.1-0.7 mmol/l dissolved in trisbuffer solution prepared according to the above are added. The mixture is well stirred and within 30 seconds 200 μl RVV+CaCl2 (20°-25° C.) are added and the mixture is stirred. The absorbance change is measured at once in a spectrophotometer at 405 nm and 37° C.

Thrombin bovine = molecular target: T2, Thrombin bovine (Bos taurus, UniProt P00735); assay: Determination of thrombin sensitivity; assay type: biochemical; conditions: Thrombin bovine E0=1.3 nmol/l; substrate 0.1-0.4 mmol/l; trisbuffer pH 8.3, I=0.25, 37° C.
T2 construct: Thrombin bovine (KabiVitrum) with a constant concentration E0 =1.3 nmol/l; purchased KabiVitrum

[1] = substrate: N=C(N)NCCC[C@H](NC(=O)CNC(=O)[C@@H](CCCNC(=N)N)NS(=O)(=O)c1ccc2ccccc2c1)C(=O)Nc1ccc([N+](=O)[O-])cc1; assay: purified protein, by the assay type; conditions: other: FXa bovine E0=4 nmol/l (pNA-substrate) or 2 nmol/l (AMC-substrate), substrate 0.01-0.4 mmol/l, trisbuffer 0.05 mol/l, pH 8.3, I=0.25, 37° C.
Description: (§1) Enzymes and substrates are mixed in a buffer solution at -37° C. The absorbance change per minute is measured at 405 nm in a spectrophotometer (pNA-substrate) or in a spectrofluorometer at excitation wavelength 380 nm and emission wavelength 440 nm (AMC-substrate).
(§2) FXa bovine (KabiVitrum) with a constant enzyme concentration
E0 =4 nmol/l (pNA-substrate)
E0 =2 nmol/l (AMC-substrate)
(§3) and the substrate in concentrations between 0.01-0.4 mmol/l (Si) are mixed in a trisbuffer solution 0.05 mol/l, pH=8.3, I=0.25 (NaCl) at 37° C. Absorbance change per minute is measured at 405 nm in a spectrophotometer for pNA-substrate and in a spectrofluorometer at emission wavelength 440 nm for AMC-substrate, respectively.

[2] = substrate: N=C(N)NCCC[C@H](NC(=O)CNC(=O)[C@@H](CCCNC(=N)N)NS(=O)(=O)c1ccccc1)C(=O)Nc1ccc([N+](=O)[O-])cc1; assay: purified protein, by the assay type; conditions: other: FXa bovine E0=4 nmol/l (pNA-substrate) or 2 nmol/l (AMC-substrate), substrate 0.01-0.4 mmol/l, trisbuffer 0.05 mol/l, pH 8.3, I=0.25, 37° C.
Description: as §1, §2
E0 =4 nmol/l (pNA-substrate)
E0 =2 nmol/l (AMC-substrate)
as §3

[3] = substrate: N=C(N)NCCC[C@H](NC(=O)CNC(=O)[C@@H](CCCNC(=N)N)NS(=O)(=O)c1ccc(Cl)cc1)C(=O)Nc1ccc([N+](=O)[O-])cc1; assay: purified protein, by the assay type; conditions: other: FXa bovine E0=4 nmol/l (pNA-substrate) or 2 nmol/l (AMC-substrate), substrate 0.01-0.4 mmol/l, trisbuffer 0.05 mol/l, pH 8.3, I=0.25, 37° C.
Description: as §1, §2
E0 =4 nmol/l (pNA-substrate)
E0 =2 nmol/l (AMC-substrate)
as §3

[4] = substrate: N=C(N)NCCC[C@H](NC(=O)CNC(=O)[C@@H](CCCNC(=N)N)NC(=O)OCc1ccc([N+](=O)[O-])cc1)C(=O)Nc1ccc([N+](=O)[O-])cc1; assay: purified protein, by the assay type; conditions: other: FXa bovine E0=4 nmol/l (pNA-substrate) or 2 nmol/l (AMC-substrate), substrate 0.01-0.4 mmol/l, trisbuffer 0.05 mol/l, pH 8.3, I=0.25, 37° C.
Description: as §1, §2
E0 =4 nmol/l (pNA-substrate)
E0 =2 nmol/l (AMC-substrate)
as §3

[5] = substrate: Cc1cc(=O)oc2cc(NC(=O)[C@H](CCCNC(=N)N)NC(=O)CNC(=O)[C@@H](CCCNC(=N)N)NC(=O)OCc3ccccc3)ccc12; assay: purified protein, by the assay type; conditions: other: FXa bovine E0=4 nmol/l (pNA-substrate) or 2 nmol/l (AMC-substrate), substrate 0.01-0.4 mmol/l, trisbuffer 0.05 mol/l, pH 8.3, I=0.25, 37° C.
Description: as §1, §2
E0 =4 nmol/l (pNA-substrate)
E0 =2 nmol/l (AMC-substrate)
as §3

[6] = substrate: N=C(N)NCCC[C@H](NC(=O)CNC(=O)[C@@H](CCCNC(=N)N)NS(=O)(=O)Cc1ccccc1)C(=O)Nc1ccc([N+](=O)[O-])cc1; assay: purified protein, by the assay type; conditions: other: FXa bovine E0=4 nmol/l (pNA-substrate) or 2 nmol/l (AMC-substrate), substrate 0.01-0.4 mmol/l, trisbuffer 0.05 mol/l, pH 8.3, I=0.25, 37° C.
Description: as §1, §2
E0 =4 nmol/l (pNA-substrate)
E0 =2 nmol/l (AMC-substrate)
as §3

[7] = substrate: CCOC(=O)N[C@H](CCCNC(=N)N)C(=O)NCC(=O)N[C@@H](CCCNC(=N)N)C(=O)Nc1ccc([N+](=O)[O-])cc1; assay: purified protein, by the assay type; conditions: other: FXa bovine E0=4 nmol/l (pNA-substrate) or 2 nmol/l (AMC-substrate), substrate 0.01-0.4 mmol/l, trisbuffer 0.05 mol/l, pH 8.3, I=0.25, 37° C.
Description: as §1, §2
E0 =4 nmol/l (pNA-substrate)
E0 =2 nmol/l (AMC-substrate)
as §3

[8] = substrate: COc1ccc(COC(=O)N[C@H](CCCNC(=N)N)C(=O)NCC(=O)N[C@@H](CCCNC(=N)N)C(=O)Nc2ccc([N+](=O)[O-])cc2)cc1; assay: purified protein, by the assay type; conditions: other: FXa bovine E0=4 nmol/l (pNA-substrate) or 2 nmol/l (AMC-substrate), substrate 0.01-0.4 mmol/l, trisbuffer 0.05 mol/l, pH 8.3, I=0.25, 37° C.
Description: as §1, §2
E0 =4 nmol/l (pNA-substrate)
E0 =2 nmol/l (AMC-substrate)
as §3

[9] = substrate: COc1ccc(S(=O)(=O)N[C@H](CCCNC(=N)N)C(=O)NCC(=O)N[C@@H](CCCNC(=N)N)C(=O)Nc2ccc([N+](=O)[O-])cc2)cc1; assay: purified protein, by the assay type; conditions: other: FXa bovine E0=4 nmol/l (pNA-substrate) or 2 nmol/l (AMC-substrate), substrate 0.01-0.4 mmol/l, trisbuffer 0.05 mol/l, pH 8.3, I=0.25, 37° C.
Description: as §1, §2
E0 =4 nmol/l (pNA-substrate)
E0 =2 nmol/l (AMC-substrate)
as §3

[10] = substrate: CC(C)(C)OC(=O)N[C@H](CCCNC(=N)N)C(=O)NCC(=O)N[C@@H](CCCNC(=N)N)C(=O)Nc1ccc([N+](=O)[O-])cc1; assay: purified protein, by the assay type; conditions: other: FXa bovine E0=4 nmol/l (pNA-substrate) or 2 nmol/l (AMC-substrate), substrate 0.01-0.4 mmol/l, trisbuffer 0.05 mol/l, pH 8.3, I=0.25, 37° C.
Description: as §1, §2
E0 =4 nmol/l (pNA-substrate)
E0 =2 nmol/l (AMC-substrate)
as §3

[11] = substrate: N=C(N)NCCC[C@H](NC(=O)CNC(=O)[C@@H](CCCNC(=N)N)NC(=O)OCc1ccccc1)C(=O)Nc1ccc([N+](=O)[O-])cc1; assay: purified protein, by the assay type; conditions: other: FXa bovine E0=4 nmol/l (pNA-substrate) or 2 nmol/l (AMC-substrate), substrate 0.01-0.4 mmol/l, trisbuffer 0.05 mol/l, pH 8.3, I=0.25, 37° C.
Description: as §1, §2
E0 =4 nmol/l (pNA-substrate)
E0 =2 nmol/l (AMC-substrate)
as §3

[12] = substrate: CN(CC(=O)N[C@@H](CCCNC(=N)N)C(=O)Nc1ccc([N+](=O)[O-])cc1)C(=O)[C@@H](CCCNC(=N)N)NC(=O)OCc1ccccc1; assay: purified protein, by the assay type; conditions: other: FXa bovine E0=4 nmol/l (pNA-substrate) or 2 nmol/l (AMC-substrate), substrate 0.01-0.4 mmol/l, trisbuffer 0.05 mol/l, pH 8.3, I=0.25, 37° C.
Description: as §1, §2
E0 =4 nmol/l (pNA-substrate)
E0 =2 nmol/l (AMC-substrate)
as §3

[13] = substrate: N=C(N)NCCC[C@H](NC(=O)CNC(=O)[C@@H](CCCNC(=N)N)NS(=O)(=O)c1ccc([N+](=O)[O-])cc1)C(=O)Nc1ccc([N+](=O)[O-])cc1; assay: purified protein, by the assay type; conditions: other: FXa bovine E0=4 nmol/l (pNA-substrate) or 2 nmol/l (AMC-substrate), substrate 0.01-0.4 mmol/l, trisbuffer 0.05 mol/l, pH 8.3, I=0.25, 37° C.
Description: as §1, §2
E0 =4 nmol/l (pNA-substrate)
E0 =2 nmol/l (AMC-substrate)
as §3

[14] = substrate: Cc1ccc(S(=O)(=O)N[C@H](CCCNC(=N)N)C(=O)NCC(=O)N[C@@H](CCCNC(=N)N)C(=O)Nc2ccc([N+](=O)[O-])cc2)cc1; assay: purified protein, by the assay type; conditions: other: FXa bovine E0=4 nmol/l (pNA-substrate) or 2 nmol/l (AMC-substrate), substrate 0.01-0.4 mmol/l, trisbuffer 0.05 mol/l, pH 8.3, I=0.25, 37° C.
Description: as §1, §2
E0 =4 nmol/l (pNA-substrate)
E0 =2 nmol/l (AMC-substrate)
as §3

[15] = substrate: CC(C)C[C@@H](NS(C)(=O)=O)C(=O)NCC(=O)N[C@@H](CCCNC(=N)N)C(=O)Nc1ccc([N+](=O)[O-])cc1; assay: purified protein, by the assay type; conditions: other: FXa bovine E0=4 nmol/l (pNA-substrate) or 2 nmol/l (AMC-substrate), substrate 0.01-0.4 mmol/l, trisbuffer 0.05 mol/l, pH 8.3, I=0.25, 37° C.
Description: as §1, §2
E0 =4 nmol/l (pNA-substrate)
E0 =2 nmol/l (AMC-substrate)
as §3

[16] = substrate: CCS(=O)(=O)N[C@H](CCCNC(=N)N)C(=O)NCC(=O)N[C@@H](CCCNC(=N)N)C(=O)Nc1ccc([N+](=O)[O-])cc1; assay: purified protein, by the assay type; conditions: other: FXa bovine E0=4 nmol/l (pNA-substrate) or 2 nmol/l (AMC-substrate), substrate 0.01-0.4 mmol/l, trisbuffer 0.05 mol/l, pH 8.3, I=0.25, 37° C.
Description: as §1, §2
E0 =4 nmol/l (pNA-substrate)
E0 =2 nmol/l (AMC-substrate)
as §3

[17] = substrate: CS(=O)(=O)N[C@H](CCCNC(=N)N)C(=O)NCC(=O)N[C@@H](CCCNC(=N)N)C(=O)Nc1ccc([N+](=O)[O-])cc1; assay: purified protein, by the assay type; conditions: other: FXa bovine E0=4 nmol/l (pNA-substrate) or 2 nmol/l (AMC-substrate), substrate 0.01-0.4 mmol/l, trisbuffer 0.05 mol/l, pH 8.3, I=0.25, 37° C.
Description: as §1, §2
E0 =4 nmol/l (pNA-substrate)
E0 =2 nmol/l (AMC-substrate)
as §3

T1 sequence (P00742 235-488 limits assumed): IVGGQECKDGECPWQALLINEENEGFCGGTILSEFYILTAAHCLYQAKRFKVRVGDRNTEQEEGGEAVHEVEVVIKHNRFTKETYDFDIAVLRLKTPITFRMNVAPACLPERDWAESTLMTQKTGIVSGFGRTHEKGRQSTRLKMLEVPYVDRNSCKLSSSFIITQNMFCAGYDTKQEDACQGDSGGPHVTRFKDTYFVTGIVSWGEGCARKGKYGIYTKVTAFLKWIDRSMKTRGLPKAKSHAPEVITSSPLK
T1 sequence (P00742 41-179 partner limits assumed): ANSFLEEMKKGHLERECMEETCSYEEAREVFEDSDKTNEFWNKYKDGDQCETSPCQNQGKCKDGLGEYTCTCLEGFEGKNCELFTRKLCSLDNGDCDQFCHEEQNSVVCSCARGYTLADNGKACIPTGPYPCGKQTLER

## N=C(N)NCCC[C@H](NC(=O)CNC(=O)[C@@H](CCCNC(=N)N)NC(=O)OCc1ccccc1)C(=O)Nc1ccc([N+](=O)[O-])cc1 [Example 1, N^α --Z--D--Arg--Gly--Arg--pNA.2HCl] (Cbz-[dR]-Gly-Arg-pNA)
FXa human
  Km: 380 µM
Thrombin bovine
  Km: 130 µM

## COc1ccc(COC(=O)N[C@H](CCCNC(=N)N)C(=O)NCC(=O)N[C@@H](CCCNC(=N)N)C(=O)Nc2ccc([N+](=O)[O-])cc2)cc1 [Example 9, N^α --Moz--D--Arg--Gly--Arg--pNA.2HCl]
FXa human
  Km: 210 µM
Thrombin bovine
  Km: 73 µM

## N=C(N)NCCC[C@H](NC(=O)CNC(=O)[C@@H](CCCNC(=N)N)NS(=O)(=O)Cc1ccccc1)C(=O)Nc1ccc([N+](=O)[O-])cc1 [Example 16, N^α --Bzls--D--Arg--Gly--Arg--pNA.2HCl]
FXa human
  Km: 50 µM
Thrombin bovine
  Km: 160 µM

B1: FXa bovine (Bos taurus) (protein)
chain: IVGGRDCAEGECPWQALLVNEENEGFCGGTILNEFYVLTAAHCLHQAKRFTVRVGDRNTEQEEGNEMAHEVEMTVKHSRFVKETYDFDIAVLRLKTPIRFRRNVAPACLPEKDWAEATLMTQKTGIVSGFGRTHEKGRLSSTLKMLEVPYVDRSTCKLSSSFTITPNMFCAGYDTQPEDACQGDSGGPHVTRFKDTYFVTGIVSWGEGCARKGKFGVYTKVSNFLKWIDKIMKARAGAAGSRGHSEAPATWTVPPPLPL
[1]
  Km: 120 µM
  kcat: 140 sek^-1
  kcat/Km: 1.14 l/μmol · sek
[2]
  Km: 260 µM
  kcat: 280 sek^-1
  kcat/Km: 1.07 l/μmol · sek
[3]
  Km: 270 µM
  kcat: 260 sek^-1
  kcat/Km: 0.96 l/μmol · sek
[4]
  Km: 210 µM
  kcat: 350 sek^-1
  kcat/Km: 1.66 l/μmol · sek
[5]
  Km: 190 µM
  kcat: 170 sek^-1
  kcat/Km: 0.89 l/μmol · sek
[6]
  Km: 40 µM
[7]
  Km: 160 µM
  kcat: 225 sek^-1
  kcat/Km: 1.41 l/μmol · sek
[8]
  Km: 150 µM
[9]
  Km: 200 µM
  kcat: 210 sek^-1
  kcat/Km: 1.05 l/μmol · sek
[10]
  Km: 220 µM
  kcat: 180 sek^-1
  kcat/Km: 0.82 l/μmol · sek
[11]
  Km: 110 µM
[12]
  Km: 160 µM
  kcat: 220 sek^-1
  kcat/Km: 1.37 l/μmol · sek
[13]
  Km: 450 µM
  kcat: 245 sek^-1
  kcat/Km: 0.55 l/μmol · sek
[14]
  Km: 220 µM
  kcat: 230 sek^-1
  kcat/Km: 1.04 l/μmol · sek
[15]
  Km: 290 µM
[16]
  Km: 190 µM
[17]
  Km: 170 µM
  kcat: 200 sek^-1
  kcat/Km: 1.17 l/μmol · sek
